Experimental findings from patent publication US20240043507A1 (RQ BIOTECHNOLOGY, published 2024) are described below.

First the molecules themselves.
B1: antibody 384 (antibody, V domains shown)
VH: EVQLVESGGGLVKPGESLRLSCAASGFTFSDYYMTWIRQAPGKGLEWVSYIRSSGHTIYYADSVKGRFTISRDNAKNSLYLQMNSLRVEDTAVYYCARGGVLRFLEWPLNAFDIWGQGTMVTVSS
VL: DIQLTQSPSSLSASVGDRVTITCRASQGISNYLAWYQQKPGKVPKLLIYAASTLQSGVPSRFSGSGSGTDFTLTISSLQPEDVATYYCQKYNNALGTFGQGTKVEIK
B2: antibody 40 (antibody, V domains shown)
VH: QVQLVESGGGLVQPGGSLRLSCAVSGFTVSRNYMSWVRQAPGKGLEWVSLIYSGGSTFYADSVKGRFTISRDNSKNTLYLQMNSLRAEDTAVYYCARDLFHRSGYHDYWGQGTLVTVSS
VL: not shown
notes: also called mAb 40
B3: antibody 269 (antibody, V domains shown)
VH: QVQLVESGGGLIQPGGSLRLSCAASGLTVNRNYMSWIRQAPGKGLEWVSVIYSGGSTFYADSVKGRFTISRDNSKNTLSLQMNSLRAEDTAIYYCARDFYEGSFDIWGQGTMVTVSS
VL: AIQLTQSPSFLSASIGDRVTITCRASQGISSYLAWYQQKPGKAPKLLIYAASTLQSGVPSRFSGSGSGTEFTLTISSLQPEDFASYYCQQLNSYPAPVFGPGTKVDIK
B4: antibody 170 (antibody, V domains shown)
VH: QVQLVESGAEVKKPGESLKISCKGSGYSFTSYWIVWVRQMPGKGLEWMGIIYPGDSDTKYSPSFQGQVSISADKPISTAYLQWSRLKASDTAMYYCARLGNWLVDYWGQGTLVTVSS
VL: DIVMTQSPLSLSVTPGQPASISCKSSQSLLHSDGKTYLYWYLQKPGQPPQLLMYEVSNRFSGVPDRFSGSGSGTDFTLKISRVESEDVGVYYCMQSIQLPRGITFGQGTRLEIK
B5: antibody 58 (antibody, V domains shown)
VH: QVQLVESGGGLVQPGRSLRLSCAASGFTFDDYAMHWVRQPPGKGLEWVSGVSWNSGTIGYADSVKGRFIISRDNAKNSLYLQMNSLKAEDTALYYCAREVGGTFGVLISREGGLDYWGQGTLVTVSS
VL: SYELTQPPSVSVAPGQTARITCGGNTIGSKSVHWYQQRPGQAPVLVVYDDSDRPSGIPERFSGSNSGNTATLTISRVEAGDEADYYCQVWDSSSDRVVFGGGTKLTVL
B6: antibody 150 (antibody, V domains shown)
VH: QVQLVESGGGLIQPGGSLRLSCAASGVTVSSNYMSWVRQAPGKGLEWVSIIYSGGTTYYADSVKGRFTISRDSSMNTLYLQMNSLRAEDTAVYYCARDLMVYGIDVWGQGTTVTVSS
VL: EIVMTQSPSSLSASVGDRVTITCRASQGISSYLAWYQQKPGKAPKLLIYAASTLQSGVPSRFSGSGSGTDFTLTISSLQPEDFATYYCQQLDSYPPGYTFGQGTKVDIK
B7: antibody 384 (antibody, V domains shown)
VH: B1 VH
VL: B1 VL
B8: antibody 316 (antibody, V domains shown)
VH: not shown
VL: QAVLTQPPSASGSPGQSVTISCTGTSSDVGGYNYVSWYQQHPGKAPKLMIYEVSKRPSGVPDRFSGSKSGNTASLTVSGLQAEDEADYYCSSYAGSNHWVFGGGTKLTVL
B9: antibody 398 (antibody, V domains shown)
VH: QVQLVESGGGLVQPGGSLRLSCAASGFTVSSNYMTWVRQAPGKGLEWVSVIYSGGSTYYADSVKGRFTISRDNSKNTLYLQMNSLRADDTAVYYCARDSTADYDFWSGYYVGAFHIWGQGTMVTVSS
VL: B8 VL with A2T, P8A, A10V, V18I, S54T, H98N
B10: antibody 278 (antibody, V domains shown)
VH: QVQLVQSGAEVKKPGASVKVSCKASGYIFIRYGISWVRQAPGQGLEWMGWISANNGYTNYAQKLQGRVTMTTDTSTSTAYMELRSLRSDDTAVYYCARDGGILTGYLDYFDHWGQGTLVTVSS
VL: DIQMTQSPSSLSASVGDRLTITCRASQSIASYLNWYQQKPGKAPKLLIYAASSLQSGVPSRFSGSGSGTDFTLTISSLQPEDFATYHCQQSYSTLGITFGPGTKVDIK
B11: antibody 222 (antibody, V domains shown)
VH: EVQLVESGGGLIQPGGSLRLSCAASGLTVSSNYMSWVRQAPGKGLEWVSVIYSGGSTFYADSVKGRFTISRDNSKNTLYLQMNSLGAEDTAVYYCARGEGSPGNWFDPWGQGTLVTVSS
VL: DVVMTQSPGTLSLSPGERATLSCRASQSVPSSYLAWYQQKPGQAPRLLIYGASTRATGIPDRFSGSGSGTDFTLTISRLEPEDFAVYYCQHYDTSPRFGGGTKVDIK
B12: antibody 281 (antibody, V domains shown)
VH: QVQLVESGGGLVQPGGSLRLSCAASGFPFSIYWMSWVRQAPGKGLEWVANIKQDGSEKYYVDSVKGRFTISRDNAKNSLYLHMNSLRGEDTAVYYCASRYYDFRPEAWFDYWGQGTLVTVSS
VL: not shown
B13: antibody 40 (antibody, V domains shown)
VH: B2 VH
VL: not shown
B14: antibody 318 (antibody, V domains shown)
VH: QVQLVQSGPEVKKPGTSVKVSCKASGFTLTSSAMQWVRQARGQRLEWIGWIVVGSGNTNYAQKFQERVTITRDMSTSTAYMELSSLRSEDTAVYYCAAGRGYNSDFDYWGQGTLVTVSS
VL: AIRMTQSPGTLSLSPGERATLSCRASQSVSSSYLAWYQQRPGQAPRLLIYGTSSRATGIPDRFSGSGSGTDFTLTISRLEPEDFAVYYCQQYGYSVYTFGQGTKVDIK
B15: antibody 158 (antibody, V domains shown)
VH: EVQLLESGGDLIQPGGSLRLSCAASGVTVSSNYMSWVRQAPGKGLEWVSIIYPGGSTFYADSVKGRFTISRDNSKNTLYLQMHSLRAEDTAVYYCARDLGSGDMDVWGKGTTVTVSS
VL: DIVMTQSPSFLSASVGDRVTITCRASQGISSYLAWYQQKPGKAPKLLIQAASTLQSGVPSRFSGSGSGTEFTLTISSLQPEDFATYYCQQLNSYRYTFGQGTKVEIK
B16: antibody 253H165L (antibody, V domains shown)
VH: not shown
VL: DIVMTQSPGTLSLSPGERATLSCRASQSVRSSYLAWYQQKPGQAPRLLIYGASRRGTGIPDRFSGSGSGTDFTLTISRLEPEDFAVYYCQQYGSSPWTFGQGTKVEIK
B17: antibody 165 (antibody, V domains shown)
VH: QVQLVQSGPEVKKPGTSVKVSCKASGFTFTSSAVQWVRQARGQRLEWIGWIVVGSGNTNYAQKFQESVTITRDMSTSTAYMELSSLRSEDTAVYYCAAPHCIGGSCHDAFDIWGQGTMVTVSS
VL: B16 VL
B18: antibody 132 (antibody, V domains shown)
VH: QVQLQQWGAGLLKPSETLSLTCAVYGGSFSGYYWSWIRQPPGKGLEWIGEINHSGSTNYNPSLKSRVTISVDTSKNQFSLKLSSVTAADTAVYYCARTDYYDSIDWGQGTLVTVSS
VL: QSVLTQEPSLTVSPGGTVTLTCGSSTGAVTSGHYPYWFQQKPGQVPRTLIYDTRNKHSWTPARFSGSLLGGKAALTLSGAQPEDEAEYYCLLSSSGARVFGGGTKLTVL
B19: antibody 88 (antibody, V domains shown)
VH: QLQLQESGPGLVKPSQTLSLTCTVSGGSISSGSYNWTWIRQPAGKGLEWIGRIYNSGSTNYNPSLKSRVTISVDTSKNQLSLKVRSVTAADTAVYYCARHCSGGTCYPKYYYGMDVWGQGTTVTVSS
VL: QSALTQPPSVSEAPRQRVTISCSGSSSNIGNNAVNWYQQFPGKAPKLLIYYDDLLPSGVSDRFSGSKSGTSASLAISGVQSEDEADYYCAAWDDSLNVVVFGGGTKLTVL
B20: antibody 175 (antibody, V domains shown)
VH: EVQLVESGGGLIQPGGSLRLSCAASGLTVSRNYMSWVRQAPGKGLEWVSLIYSGGSTYYADSVKGRFTISRDNSKNTLYLQMNSLRAEDTAVYYCARDLRGEVWGQGTMVTVSS
VL: not shown

Numbering of substitutions follows the chain as printed.

In one test the target is spike protein of SARS-CoV-2 strain B.1.351 (SARS-CoV-2, UniProt P0DTC2 14-1273). The test is described as follows: cell-based or functional assay.
Consider B1, for which the “IC50 (FRNT neutralisation)” value was greater than 10 µg/mL.
Same read-out and setting: the result for B2 reads 0.738 µg/mL.

The target of another test is spike protein of SARS-CoV-2 strain P.1 (SARS-CoV-2, UniProt P0DTC2 14-1273). Nature of the test: cell-based or functional assay.
As for B1, the “IC50 (FRNT neutralisation)” value is greater than 10 µg/mL.
As to B2, the “IC50 (FRNT neutralisation)” value worked out at 0.153 µg/mL.

The target in the next test is spike protein of SARS-CoV-2 strain B.1.1.7 (SARS-CoV-2, UniProt P0DTC2 14-1273). The test is described as follows: cell-based or functional assay.
Turning to B1, the “IC50 (FRNT neutralisation)” value was 0.005 µg/mL.
On the same count and under the same terms, with B2 the figure was 0.035 µg/mL.

The target in a further test is spike protein of SARS-CoV-2 strain Victoria (SARS-CoV-2/human/AUS/VIC01/2020) (SARS-CoV-2, UniProt P0DTC2 14-1273). The test is described as follows: cell-based or functional assay.
Regarding B2, the “IC50 (FRNT neutralisation)” value came out at 0.026 µg/mL.

Another test addresses spike protein of SARS-CoV-2 strain B.1.351 (SARS-CoV-2, UniProt P0DTC2 14-1273). Nature of the test: cell-based or functional assay. This is another data set of the same source.
Turning to B3, the “IC50 (FRNT, live virus neutralisation)” value was greater than 10 µg/mL.
Regarding B4, the “IC50 (FRNT, live virus neutralisation)” value is greater than 10 µg/mL.
The same measure, in the same setting: with B5 the figure was 0.136 µg/mL.
For the molecule B6, the “B.1.351/Victoria ratio (IC50)” value came out at 30 and the “IC50 (FRNT, live virus neutralisation)” value is 0.35 µg/mL.
Consider B7, for which the “IC50 (FRNT, live virus neutralisation)” value is greater than 10 µg/mL.
For B8, the “IC50 (FRNT, live virus neutralisation)” value is greater than 10 µg/mL.
B9: the “IC50 (FRNT, live virus neutralisation)” value is greater than 10 µg/mL.
In the case of B10, the “IC50 (FRNT, live virus neutralisation)” value is 0.16 µg/mL.
Take B11: the “IC50 (FRNT, live virus neutralisation)” value was 0.017 µg/mL.
As to B12, the “IC50 (FRNT, live virus neutralisation)” value is greater than 10 µg/mL.
As for B13, the “IC50 (FRNT, live virus neutralisation)” value was 0.738 µg/mL.
For the molecule B14, the “IC50 (FRNT, live virus neutralisation)” value amounted to 0.019 µg/mL.
In the case of B15, the “IC50 (FRNT, live virus neutralisation)” value was greater than 10 µg/mL.
For B16, the “IC50 (FRNT, live virus neutralisation)” value was determined as 0.013 µg/mL.
Still for that read-out and setting: the result for B17 reads 0.054 µg/mL; that for B18, greater than 10 µg/mL.
On the same count and under the same terms, the result for B19 reads greater than 10 µg/mL; that for B20, greater than 10 µg/mL.

For the next test, the target named is spike protein of SARS-CoV-2 strain Victoria (SARS-CoV-2/human/AUS/VIC01/2020) (SARS-CoV-2, UniProt P0DTC2 14-1273). Nature of the test: cell-based or functional assay. The source holds these as a separate data set.
For B3, the “IC50 (FRNT, live virus neutralisation)” value is 0.03 µg/mL.
Still for that read-out and setting: the result for B4 reads 0.025 µg/mL; that for B5, 0.041 µg/mL; that for B6, 0.012 µg/mL.
The same measure, in the same setting: with B8 the figure was 0.018 µg/mL; with B9, 0.091 µg/mL.
For B10, the “IC50 (FRNT, live virus neutralisation)” value was 0.014 µg/mL.
With B11, the “IC50 (FRNT, live virus neutralisation)” value was 0.019 µg/mL.
Same read-out and setting: the result for B12 reads 0.005 µg/mL; that for B13, 0.026 µg/mL; that for B14, 0.029 µg/mL.
On the same count and under the same terms, with B15 the figure was 0.031 µg/mL.
On to B16, for which the “IC50 (FRNT, live virus neutralisation)” value was determined as 0.003 µg/mL.
Regarding B17, the “IC50 (FRNT, live virus neutralisation)” value turned out to be 0.034 µg/mL.
As to B18, the “IC50 (FRNT, live virus neutralisation)” value amounted to 0.048 µg/mL.
Same read-out and setting: with B19 the figure was 0.033 µg/mL.
For the molecule B20, the “IC50 (FRNT, live virus neutralisation)” value stood at 0.026 µg/mL.
